US20240254222A1 (Bayer, published 2024)

Target: T1, Human Semaphorin3A-Sema Domain, TPP-19068 (human, UniProt Q14563 21-569)
T1 construct: produced inhouse in HEK293-6E; also called human monovalent Sema3A domain
T1 sequence: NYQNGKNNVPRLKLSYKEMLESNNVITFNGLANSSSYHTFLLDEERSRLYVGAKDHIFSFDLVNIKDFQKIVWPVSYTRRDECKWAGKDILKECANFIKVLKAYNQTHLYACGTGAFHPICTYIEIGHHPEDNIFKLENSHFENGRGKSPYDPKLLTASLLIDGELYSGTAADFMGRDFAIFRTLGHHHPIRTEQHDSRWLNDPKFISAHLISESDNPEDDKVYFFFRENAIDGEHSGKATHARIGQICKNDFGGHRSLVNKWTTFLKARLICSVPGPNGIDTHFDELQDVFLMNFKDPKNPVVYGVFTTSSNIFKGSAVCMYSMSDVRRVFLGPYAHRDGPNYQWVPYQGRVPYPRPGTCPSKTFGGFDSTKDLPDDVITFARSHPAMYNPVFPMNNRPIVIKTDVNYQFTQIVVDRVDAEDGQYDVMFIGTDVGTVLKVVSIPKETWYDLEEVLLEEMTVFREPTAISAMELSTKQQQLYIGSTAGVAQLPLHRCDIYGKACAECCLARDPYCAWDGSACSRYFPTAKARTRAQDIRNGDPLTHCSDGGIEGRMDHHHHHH
Experiment: SPR, 100 nM TPP-19068, binding experiment
Method: To assess the binding kinetics and affinity of anti-Sema3A antibodies as well as their species cross-reactivity profile, binding assays were conducted using surface plasmon resonance (SPR). Binding assays were performed on a Biacore T200 instrument or on a Biacore 8K+ instrument (Cytiva) at 25° C. using assay buffer HBS P+, 300 mM NaCl, 0.75 mM CaCl₂, 2.5 mM MgCl₂, 1 mg/ml BSA, 0.05% NaN₃. Antibodies were captured either via anti-human Fc IgGs (“Human antibody capture kit”, Order No. BR100839, Cytiva) or in case of Fc-tagged analytes by anti-human Fab IgGs (“Human Fab capture kit”, Order No. 28958325, Cytiva) covalently amine coupled to a Series S CM5 sensor chip (Cytiva). The amine coupling was carried out according to the manufacturer's instructions using 1-ethyl-3-(3-dimethylaminopropyl) carbodiimide hydrochloride (EDC), N-hydroxysuccinimide (NHS) and ethanolamine HCl, pH 8.5 (“Amine Coupling Kit” BR-1000-50, Cytiva.). For phage display hits Fc-tagged human and mouse Sema3A was used as analytes in a concentration range from 1.56-200 nM. Human, mouse, cynomolgus, rat, dog and pig monovalent Sema3A domain were used as analytes in a concentration series from […] in multi cycle kinetics mode or in 100 nM for binding analysis only. The sensor surface was regenerated with glycine pH 2.0 after each antigen injection. Obtained sensorgrams were double referenced (subtraction of reference flow cell signal and buffer injection) and were fitted to a 1:1 Langmuir binding model to derive kinetic data using the Biacore T200 Evaluation software.

B1: TPP-31357 (Fab, V domains shown)
V domain 1: EVQLLESGGGLVQPGGSLRLSCAASGFTFRSYAVHWVRQAPGKGLEWVSSTEGSGVGTSYTDSVKGRFTISRDNSKNTLYLQMNSLRAEDTAVYYCARMLGGGNPLDYLDYWGQGTLVTVSS
V domain 2: QSVLTQPPSASGTPGQRVTISCSGSSSNLGEGYDVHWYQQLPGKAPKLLIYYSDFRPSGVSDRFSGSKSGTSASLAISGLQSEDEADYYCAAWDDSLSSQVFGGGTQVTVLG
notes: Fab heavy chain entry carries myc and His tags; also called Fab of 3H4 Univ Ramot
**Q.** With B1 as the binder, how does the Kd read?
**A.** 0.35 nM
